Laboratory results taken from the nanobody polyreactivity screen of Harvey et al. (2022).

Assay: yeast display, Sf9 membrane polyspecificity reagent, FACS + sequencing; frameworks hold sequencing errors
Summary of the method: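 Galactose induction of a Saccharomyces cerevisiae BJ5465 synthetic nanobody display library ran 36–48 hours. The cells were then stained for 1 hour at 4 °C with 10% biotinylated, detergent-solubilized Sf9 membrane reagent, pulled down on streptavidin microbeads and FACS-sorted into low and high (top ~1%) gates on expression and reagent-binding fluorescence. Labels for polyreactivity follow the gate of origin.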

Sequence	polyreactivity (PSR sort gate)
QVQLVESGGGLVQAGGSLRLSCAASGSIFGSYAMGWYRQAPGKERELVAAISRRGGSTYYADSVKGRFTISRDNAKNTVYLQMNSLKPEDTAVYYCAARWPTGRNGYWGQGTQVTVSS	high polyreactivity
QVQLVESGGGLVQAGGSLRLSCAASGSIFGSYAMGWYRQAPGTERELVAAIDWSGVGTYYADSVKGRFTISRDNANNTVYLQMNSLKPEDTAVYYCAAGVLRRDTELYYWGQGTQVTVSS	low polyreactivity
QVQLVESGGGLVQAGGSLRLSCAASGSIFGSYTMGWYRPAPGKERELVAAITSGGGNTYYADSVKGRFTISRDNAKNTVYLQMNSLKPEDTAVYYCAARERYTGYGSWGQGTQVTVSS	high polyreactivity
QVQLVESGGGLVQAGGSLRLSCAASGSIFGTYAKGWYRQAPGKERELVAAISKRGSTTSYADSVKGRFTISRDNAKNTVYLQMNSLKPEDTAVYYCAALTRNSGGYGSWGQGTQVTVSS	high polyreactivity
QVQLVESGGGLVQAGGSLRLSCAASGSIFGTYAMGWYRQAPGKEREFVAAISWSDGSTYYADSVKGRFTISRDNAKNTVYLQMNSLIPEDTAVYYCAVRRVGSIYIDRYIYVVADYDYWGQGTQVTVSS	low polyreactivity
QVQLVESGGGLVQAGGSLRLSCAASGSIFGTYAMGWYRQAPGKERELVAAISRGGRTYYADSVKGRFTISRDNAKNTVYLQMNSLKPEDTAVYYCAARTVGLRGYYYWGQGTQVTVSS	high polyreactivity
QVQLVESGGGLVQAGGSLRLSCAASGSIFGTYAMGWYRQAPGKERELVATISYGDGSTYYADSVKGRFTISRDNAKNTVYLQMNSLKPEDTAVYYCNTGVYSSGGPLDYWGQGTQVTVSS	low polyreactivity
QVQLVESGGGLVQAGGSLRLSCAASGSIFGVNAMGWYRQAPGKERELVAAISSGGSTNYADSVKGRFTISRDNAKNTVYLQMNSLKPEDTAVSYCNTLWGHQYIGPYRTRECYYWGQGTQVTVSS	low polyreactivity
QVQLVESGGGLVQAGGSLRLSCAASGSIFGVNAMGWYRQAPGKERELVASITGGDSTNYADSVKGRFTISRDNAKNTVYLQMNSLKPEDSAVYYCAKDHYYRYEEGDYWGQGTQVTVSS	low polyreactivity
QVQLVESGGGLVQAGGSLRLSCAASGSIFGVNAMGWYRQAPGKERELVASITGGDSTNYADSVKGRFTISRDNAKNTVYLQMNSLKPEDTAVYYCAKDHYYRYEEGDYWGQGTQVTVSS	low polyreactivity
QVQLVESGGGLVQAGGSLRLSCAASGSIFGVNAMGWYRQAPGKERELVATISASGGSTYYADSVKGRFTISRDNAKNTVYLQMNSLKPEDTAVYYCATVVSPSPEMDYWGQGTQVTVSS	low polyreactivity
QVQLVESGGGLVQAGGSLRLSCAASGSIFGVYAMGWYIPAPGTERELVAAISRGGSTNDADSVKGRFTISRDNEKNTVYLQMNSLKPEDTAVYYCNAVPVLGGYGYQWGYDYWGQGTKVTVSS	low polyreactivity
QVQLVESGGGLVQAGGSLRLSCAASGSIFGWNAMGWYRQAPGKERELVAAITRRGDSTYYADSVKGRFTISRDNAKNTVYLQMNSLKPEDTAVYYCAKRGTGVYRVDYGYWGQGTQVTVSS	high polyreactivity
QVQLVESGGGLVQAGGSLRLSCAASGSIFGWYAMGGYRQAPGKESELVASISVTAGSTYYADSVKWRFTMSRDYAKNTVYLQMNSLKPEDTAVYYCAADDYTADAVQRFYYWGQGTQVTVSS	low polyreactivity
QVQLVESGGGLVQAGGSLRLSCAASGSIFGWYAMGWYRQAPGKEREFVATISRRGGRTYYADSVKGRFTISRDNAKNTVYLQMNSLKPEDTAVYYCAANSVYKEDYWGQGTQVTVSS	high polyreactivity
QVQLVESGGGLVQAGGSLRLSCAASGSIFGWYAMGWYRQAPGKERELVAAIDSATSTYYADSVKGRFTISRDNAKNTVYLQKNSLKPEDTAVYYCAVYSWWIDAEYDYWGQGSQVTVSS	low polyreactivity
QVQLVESGGGLVQAGGSLRLSCAASGSIFGWYAMGWYRQAPGKERELVAGISWSGANTYYADSVKGRFTISRDNAKNTVYLQMNSLKPEDTAVYYCAAGPGLYYSRRYGYWGQGTQVTVSS	high polyreactivity
QVQLVESGGGLVQAGGSLRLSCAASGSIFGWYAMGWYRQAPGKERELVATISSGGGNTYYADAVKGRFTISRDNAKNTVYLQMNSLKPEDTAVYYCNASPGPDSRLAEFDYWGQGTQVTVSS	low polyreactivity
QVQLVESGGGLVQAGGSLRLSCAASGSIFGWYVMGWYRQAPGKERELVAAISSVGSTYYADSVKGRFTISRDNAKNTVYLQMNSLKPEDTAVYYCAKLRYPYLFWDDSEYWGQCTQVTVSS	low polyreactivity
QVQLVESGGGLVQAGGSLRLSCAASGSIFGYNAKGWYRQAPGKERELVAAINYRGGSTYYADSVKGRFTISRDNAKNTVYLQMNSLKPEDTAVYYCAARYWKDGSTYDYWGQGTQVTVSS	high polyreactivity
QVQLVESGGGLVQAGGSLRLSCAASGSIFGYNAMGWYRQAPGKEREFVAAISWSGGRTYYADSVKGRFTISRDNAKYTVYLQMNSLKPEDTAVYYCAAPSRPAPRFDYWGQGTQVTVSS	low polyreactivity
QVQLVESGGGLVQAGGSLRLSCAASGSIFGYNAMGWYRQAPGKEREFVAAITSGGSTYYADSVKGRFTISRDNAKNTVYLQMNSLKPEDTAVYYCRRRNVYSTRRYDYWGQGTQVTVSS	high polyreactivity

Sequence	polyreactivity (PSR sort gate)
QVQLVESGGGLVQAGGSLRLSCAASGSIFGYNAMGWYRQAPGKEREFVASIRYRGGSTYYADSVKGRFTISRDNAKNTVYLQMNSLKPEDTAVYYSAAYWWGVSKRQYGYWGQGTQVTVSS	high polyreactivity
QVQLVESGGGLVQAGGSLRLSCAASGSIFGYNAMGWYRQAPGKERELVATISSGGSTNYADSVKGRFTISRDNAKNTVYLQMNSLKPEDTAVYYCAKEYGSIIPYDYWGQGTQVTVSS	low polyreactivity
QVQLVESGGGLVQAGGSLRLSCAASGSIFGYNDMGCYRQAPGKEREMVAAITTSGDSTYYADSVKGRFTISRDNAKNTVYLQMNSLKPEDTAVYYCNADGEVVDWYHPYYVEYDYWGQGTQVTVSS	low polyreactivity
QVQLVESGGGLVQAGGSLRLSCAASGSIFGYNTMGWYRQAPGKERELVAAISYSGGRTYYADSVKGRFTISRDNAKNTVYVQMNSLKPEDTAVYYCAADFYFRRGTDYDYWGQGTQVTVSS	high polyreactivity
QVQLVESGGGLVQAGGSLRLSCAASGSIFGYYALGWYRQAPGKERELVAAISRSGGSTYYADSVKGRFTISRDNAKNTVYLQMNSLKPEDTAVYYCAADDYPYGNYYWGQGTQVTVSS	high polyreactivity
QVQLVESGGGLVQAGGSLRLSCAASGSIFGYYAMGGYIQAPGYERELVAAISYSGGSTYYADSVKGRFTISRDHAKNTVYLQMNSLKPEDTAVYYCAAVRRRTRYGYRYDYWGQGTQVTVSS	high polyreactivity
QVQLVESGGGLVQAGGSLRLSCAASGSIFGYYAMGWYRLAPGKERELVAAINWRGTSTYYADSVKGRFTISRDNAKNTVYLQMISLKPEDTAVYYCAARRSVGGYGYWGQGTQVTVSS	high polyreactivity
QVQLVESGGGLVQAGGSLRLSCAASGSIFGYYAMGWYRQAPGKERELVAAIRWSDGSTYYADSVKGRFTISRDNAKNTVYLQMNSLKPEDTAVYYCAAETGWLYDYWGQGTQVTVSS	high polyreactivity
QVQLVESGGGLVQAGGSLRLSCAASGSIFGYYAMGWYRQAPGKERELVAAISGSGGSTYYADSVKGRFTISRDYAKNTVYLQMNSLKPEDTAVYYCAARWQWLNGYYYWGQGTHVTVSS	high polyreactivity
QVQLVESGGGLVQAGGSLRLSCAASGSIFGYYAMGWYRQAPGKERELVAAISRGGRTNYADSVKGRFTISRDNAKNTVYLQMNSLKPEDTAVYYCAAESYRAYKYDYWGQGTQVTVSS	low polyreactivity
QVQLVESGGGLVQAGGSLRLSCAASGSIFGYYAMGWYRQAPGKERELVAAITRSGGRTYYADSVKGRFTISRDNAKNTVYLQMNSQKPEDTAVYYCATEWLKDRYPYGYWGQGTQVTVSS	high polyreactivity
QVQLVESGGGLVQAGGSLRLSCAASGSIFGYYAMGWYRQAPGKERELVAVITSGATTNYADSVKGRFTISRDNAKNTVYLQMNSLKPEDTAVYYCAARPQVKRGRYGYWGQGTQVTVSS	low polyreactivity
QVQLVESGGGLVQAGGSLRLSCAASGSIFGYYAMGWYRQARGNERELGAAIRSTGSTNYADSVKGRFTISRDNAQNTVYLQMNSLKPEDTAVYYCAAGDITGGSGNWVVTPYDYGGQGTQVTVSS	high polyreactivity
QVQLVESGGGLVQAGGSLRLSCAASGSIFGYYTMGWYRQAPGKERELVAAITSGGSTHYADSVKGRFTISRDNAKKTGYLQMNSLKPEDTAVYYCAKVSYYPWRYDYWGQGTQVTVSS	low polyreactivity
QVQLVESGGGLVQAGGSLRLSCAASGSIFGYYVMGWYRQAPGKERELVAAISRSGGSTYYADSVKGRFTISRDHAKNTVYLQMNSLKPEDTAVYYCAARGTAERDYWGQGTQVTVSS	high polyreactivity
QVQLVESGGGLVQAGGSLRLSCAASGSIFHDNAMGWYRQAPGKERELVAAITTSGGNTYYADSVKGRFTISRDNAKNTVYLQMNSLKPEDTAVYYCAADTLGKYDYWGQGTQVTVSS	low polyreactivity
QVQLVESGGGLVQAGGSLRLSCAASGSIFHGYAMRWYRQAPGKERELVAAISRNGGGTYYADSVKGRFTISRDNAKNTVYLQMNSLKPEDTAVYYCAVVRYSSRYDYWGQGTQVTVSS	high polyreactivity
QVQLVESGGGLVQAGGSLRLSCAASGSIFHIYAMGWYRQAPGKERELVAAISSGGRTNYADSVKGRFTISRDNAKNTVYLQMNSLKPEDTAVYYCAADWIYLPTRNYRVRVDYWGQGTQVTVSS	high polyreactivity
QVQLVESGGGLVQAGGSLRLSCAASGSIFHKNAMGWYRPAPGNERELVATITSDGSTNYADSVKGRFTISRDNEKNTVYLQMNSLKPEDTAVYDCAAYSQVGGYDYWGQGTQVTVSS	low polyreactivity
QVQLVESGGGLVQAGGSLRLSCAASGSIFHPYAMGWYRQAPGKEREFVAAITFRGSTYFADSVKGRFTISRDNAKITVYLQMNSLKPEDTAVYYCAARYHIFRRGSRNYDYWGQGTQVTVSS	high polyreactivity
QVQLVESGGGLVQAGGSLRLSCAASGSIFHTYAMGWYRQAPGKERELVAAISGIGGSTYYADSVKGRFTISRDNAKNTVYLQMNSLKPEDTAVYYCAVELYWYPGYDYWGQGTQVTVSS	low polyreactivity
